Assay results published in publication PMC4090178, “Structural and Biochemical Characterization of Human PR70 in Isolation and in Complex with the Scaffolding Subunit of Protein Phosphatase 2A” (PLoS ONE, 2014).

B1: PR70 (25–575) (domain or fragment, human, UniProt Q9Y5P8 25-575, looked up)
chain: EASTQRMLQDCLRRIKAPGRDQPTPGDGEQPGAWPTAPLAAPRPSGLEPPGTPGPGPALPLGAASSPRNAPHVRGTRRSAGTRVVQTRKEEPLPPATSQSIPTFYFPRGRPQDSVNVDAVISKIESTFARFPHERATMDDMGLVAKACGCPLYWKGPLFYGAGGERTGSVSVHKFVAMWRKILQNCHDDAAKFVHLLMSPGCNYLVQEDFVPFLQDVVNTHPGLSFLKEASEFHSRYITTVIQRIFYAVNRSWSGRITCAELRRSSFLQNVALLEEEADINQLTEFFSYEHFYVIYCKFWELDTDHDLLIDADDLARHNDHALSTKMIDRIFSGAVTRGRKVQKEGKISYADFVWFLISEEDKKTPTSIEYWFRCMDLDGDGALSMFELEYFYEEQCRRLDSMAIEALPFQDCLCQMLDLVKPRTEGKITLQDLKRCKLANVFFDTFFNIEKYLDHEQKEQISLLRDGDSGGPELSDWEKYAAEEYDILVAEETAGEPWEDGFEAELSPVEQKLSALRSPLAQRPFFEAPSPLGAVDLYEYACGDEDLEPL
notes: PR70 (B''β), regulatory B'' subunit of PP2A, human, product of PPP2R3B; also called B''/PR70; source: E. coli BL21(DE3), purified (IMAC, TEV cleavage, gel filtration); not shown: His tag, N-terminal, cleaved
B2: PR70 core fragment (residues 130–483) (domain or fragment, human, UniProt Q9Y5P8 130-483, looked up)
chain: FPRGRPQDSVNVDAVISKIESTFARFPHERATMDDMGLVAKACGCPLYWKGPLFYGAGGERTGSVSVHKFVAMWRKILQNCHDDAAKFVHLLMSPGCNYLVQEDFVPFLQDVVNTHPGLSFLKEASEFHSRYITTVIQRIFYAVNRSWSGRITCAELRRSSFLQNVALLEEEADINQLTEFFSYEHFYVIYCKFWELDTDHDLLIDADDLARHNDHALSTKMIDRIFSGAVTRGRKVQKEGKISYADFVWFLISEEDKKTPTSIEYWFRCMDLDGDGALSMFELEYFYEEQCRRLDSMAIEALPFQDCLCQMLDLVKPRTEGKITLQDLKRCKLANVFFDTFFNIEKYLDHEQK
notes: PR70 (B''β), regulatory B'' subunit of PP2A, human, product of PPP2R3B; The crystal (PDB 4MEW) was of the selenomethionine-labelled protein alone; the model holds residues 134–481; also called PR70 core domain; source: E. coli BL21(DE3), purified (IMAC, TEV cleavage, gel filtration); not shown: His tag, N-terminal, cleaved
B3: PR70 (130–555) (domain or fragment, human, UniProt Q9Y5P8 130-555, looked up)
chain: FPRGRPQDSVNVDAVISKIESTFARFPHERATMDDMGLVAKACGCPLYWKGPLFYGAGGERTGSVSVHKFVAMWRKILQNCHDDAAKFVHLLMSPGCNYLVQEDFVPFLQDVVNTHPGLSFLKEASEFHSRYITTVIQRIFYAVNRSWSGRITCAELRRSSFLQNVALLEEEADINQLTEFFSYEHFYVIYCKFWELDTDHDLLIDADDLARHNDHALSTKMIDRIFSGAVTRGRKVQKEGKISYADFVWFLISEEDKKTPTSIEYWFRCMDLDGDGALSMFELEYFYEEQCRRLDSMAIEALPFQDCLCQMLDLVKPRTEGKITLQDLKRCKLANVFFDTFFNIEKYLDHEQKEQISLLRDGDSGGPELSDWEKYAAEEYDILVAEETAGEPWEDGFEAELSPVEQKLSALRSPLAQRPFFEAPS
notes: PR70 (B''β), regulatory B'' subunit of PP2A, human, product of PPP2R3B; residues 130–555; source: E. coli BL21(DE3), purified (IMAC, TEV cleavage, gel filtration); not shown: His tag, N-terminal, cleaved
B4: PR72 (24–529) (domain or fragment, UniProt Q06190-2 24-529, looked up)
chain: GCDFVLPSRFKKRLKSFQQTQIQNKPEKKPGTPLPPPATSPSSPRPLSPVPHVNNVVNAPLSINIPRFYFPEGLPDTCSNHEQTLSRIETAFMDIEEQKADIYEMGKIAKVCGCPLYWKAPMFRAAGGEKTGFVTAQSFIAMWRKLLNNHHDDASKFICLLAKPNCSSLEQEDFIPLLQDVVDTHPGLTFLKDAPEFHSRYITTVIQRIFYTVNRSWSGKITSTEIRKSNFLQTLALLEEEEDINQITDYFSYEHFYVIYCKFWELDTDHDLYISQADLSRYNDQASSSRIIERIFSGAVTRGKTIQKEGRMSYADFVWFLISEEDKRNPTSIEYWFRCMDVDGDGVLSMYELEYFYEEQCERMEAMGIEPLPFHDLLCQMLDLVKPAVDGKITLRDLKRCRMAHIFYDTFFNLEKYLDHEQRDPFAVQKDVENDGPEPSDWDRFAAEEYETLVAEESAQAQFQEGFEDYETDEPASPSEFGNKSNKILSASLPEKCGKLQSVDEE
notes: PR72 (B''α2), regulatory B'' subunit of PP2A, product of PPP2R3A; residues 24–529; the end at 529 fits the PR72 isoform of 529 residues, not PR130; also called PR72 subunit (residue 24–529); B''α2; source: E. coli BL21(DE3), purified (IMAC, TEV cleavage, gel filtration); not shown: His tag, N-terminal, cleaved
B5: PR70 (130–504) (domain or fragment, human, UniProt Q9Y5P8 130-504, looked up)
chain: FPRGRPQDSVNVDAVISKIESTFARFPHERATMDDMGLVAKACGCPLYWKGPLFYGAGGERTGSVSVHKFVAMWRKILQNCHDDAAKFVHLLMSPGCNYLVQEDFVPFLQDVVNTHPGLSFLKEASEFHSRYITTVIQRIFYAVNRSWSGRITCAELRRSSFLQNVALLEEEADINQLTEFFSYEHFYVIYCKFWELDTDHDLLIDADDLARHNDHALSTKMIDRIFSGAVTRGRKVQKEGKISYADFVWFLISEEDKKTPTSIEYWFRCMDLDGDGALSMFELEYFYEEQCRRLDSMAIEALPFQDCLCQMLDLVKPRTEGKITLQDLKRCKLANVFFDTFFNIEKYLDHEQKEQISLLRDGDSGGPELSDWEK
notes: PR70 (B''β), regulatory B'' subunit of PP2A, human, product of PPP2R3B; residues 130–504; source: E. coli BL21(DE3), purified (IMAC, TEV cleavage, gel filtration); not shown: His tag, N-terminal, cleaved
B6: PR70 (105–575) (domain or fragment, human, UniProt Q9Y5P8 105-575, looked up)
chain: GTRVVQTRKEEPLPPATSQSIPTFYFPRGRPQDSVNVDAVISKIESTFARFPHERATMDDMGLVAKACGCPLYWKGPLFYGAGGERTGSVSVHKFVAMWRKILQNCHDDAAKFVHLLMSPGCNYLVQEDFVPFLQDVVNTHPGLSFLKEASEFHSRYITTVIQRIFYAVNRSWSGRITCAELRRSSFLQNVALLEEEADINQLTEFFSYEHFYVIYCKFWELDTDHDLLIDADDLARHNDHALSTKMIDRIFSGAVTRGRKVQKEGKISYADFVWFLISEEDKKTPTSIEYWFRCMDLDGDGALSMFELEYFYEEQCRRLDSMAIEALPFQDCLCQMLDLVKPRTEGKITLQDLKRCKLANVFFDTFFNIEKYLDHEQKEQISLLRDGDSGGPELSDWEKYAAEEYDILVAEETAGEPWEDGFEAELSPVEQKLSALRSPLAQRPFFEAPSPLGAVDLYEYACGDEDLEPL
notes: PR70 (B''β), regulatory B'' subunit of PP2A, human, product of PPP2R3B; source: E. coli BL21(DE3), purified (IMAC, TEV cleavage, gel filtration); not shown: His tag, N-terminal, cleaved

What was measured:
Assay in all cases: ITC; B''-constructs at 20–40 µM in the cell titrated with 200–300 µM Aα or Aβ constructs; 15°C; 20 mM Tris pH 7.5, 200 mM NaCl, 2 mM CaCl2; 1:1 binding model
[1] = biological target: B1
[2] = biological target: B6
[3] = biological target: T1, A α (HEAT1–15) (UniProt P30153 1-589); conditions: both partners purified
T1 construct: PP2A scaffolding subunit A, α isoform, product of PPP2R1A; HEAT repeats 1–15; calculated molecular weight 65.3 kD; also called full length A-subunit; scaffolding A subunit; source: E. coli BL21(DE3), purified (IMAC, TEV cleavage, gel filtration); not shown: His tag, N-terminal, cleaved
T1 sequence (P30153 whole entry, canonical isoform): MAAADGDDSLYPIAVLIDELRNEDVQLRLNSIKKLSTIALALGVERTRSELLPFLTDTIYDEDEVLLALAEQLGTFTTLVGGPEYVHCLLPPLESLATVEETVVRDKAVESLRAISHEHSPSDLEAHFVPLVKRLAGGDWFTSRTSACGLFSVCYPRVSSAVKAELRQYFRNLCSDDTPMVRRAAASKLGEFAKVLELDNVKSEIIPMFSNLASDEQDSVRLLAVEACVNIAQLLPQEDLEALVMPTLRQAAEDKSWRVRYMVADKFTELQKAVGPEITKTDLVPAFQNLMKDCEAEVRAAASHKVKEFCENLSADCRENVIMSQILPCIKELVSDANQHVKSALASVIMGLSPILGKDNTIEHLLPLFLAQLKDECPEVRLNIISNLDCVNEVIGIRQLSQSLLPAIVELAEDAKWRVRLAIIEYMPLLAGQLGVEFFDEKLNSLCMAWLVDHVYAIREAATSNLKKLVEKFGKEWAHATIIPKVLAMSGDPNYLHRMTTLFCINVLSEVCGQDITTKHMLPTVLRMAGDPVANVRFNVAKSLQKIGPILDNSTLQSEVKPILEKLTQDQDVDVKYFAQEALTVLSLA

| Kd [3] [nM] | Molecule | further results |
| --- | --- | --- |
| – | A β (HEAT1–15) (from UniProt P30154 1-601) (natural protein) | Kd [1]: 702 nM; dH [1]: -21.5 kcal/mol; stoichiometry N [1]: 1.01; Kd [2]: 411 nM; dH [2]: -17.1 kcal/mol; stoichiometry N [2]: 0.86 |
| 112 ± 6 | B1 | – |
| > 100000 | B2 | – |
| > 100000 | B3 | – |
| 2920 ± 300 | B4 | – |
| > 100000 | B5 | – |
| 45 ± 8 | B6 | – |
